# Results as given in the supplement of paper PMC10724198.
# ± gives the standard deviation of the averaged measurements.
# Assays:
# Saccharomyces cerevisiae [1] = assay: protein stability index of tFT-peptide fusion (C-terminal peptide) (PSI (0-1 scale)); higher = more stable (slower turnover)
# Protocol: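 MPS profiling in S. cerevisiae of the tFT-X12 degron library: putative degron peptides plus stable controls, 12 aa, fused to the C-terminus of a sfGFP-mCherry timer. Cells are FACS-sorted into 8 mCherry/sfGFP bins and deep-sequenced. PSI runs from 0 (unstable) to 1 (stable). Backgrounds are wild type, das1Δ and doa10Δ at 30 °C, and wild type, das1Δ, cdc34-1 and cdc53-1 at 37 °C; 2-3 technical replicates each.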
# Saccharomyces cerevisiae [2] = assay: as above; settings: genetic background: wild type; temperature: 30 C
# [3] = genetic background: cdc34-1, temperature: 37 C
# [4] = genetic background: cdc53-1, temperature: 37 C
# [5] = genetic background: das1 deletion, temperature: 30 C
# [6] = genetic background: das1 deletion, temperature: 37 C
# [7] = genetic background: doa10 deletion, temperature: 30 C
# [8] = genetic background: wild type, temperature: 30 C
# [9] = genetic background: wild type, temperature: 37 C
# 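Note: PSI is a weighted mean of sequencing reads over stability bins, variants kept only with over 10 reads, mCherry proximal and sfGFP distal, peptide attached via GGGS linker.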
Sequence,protein stability index (Saccharomyces cerevisiae [1]; [3]),protein stability index (Saccharomyces cerevisiae [1]; [4]),protein stability index (Saccharomyces cerevisiae [1]; [5]),protein stability index (Saccharomyces cerevisiae [1]; [6]),protein stability index (Saccharomyces cerevisiae [1]; [7]),protein stability index (Saccharomyces cerevisiae [1]; [8]),protein stability index (Saccharomyces cerevisiae [1]; [9]),protein stability index (Saccharomyces cerevisiae [2])
CFLLVSLGILCW,0.0312 ± 0.00089,0.0425 ± 0.02,0.109 ± 0.036,0.121 ± 0.003,0.0685 ± 0.035,0.106 ± 0.034,0.0931 ± 0.026,0.176 ± 0.094
WISVRIFISCFF,0.177 ± 0.0059,0.269 ± 0.02,0.191 ± 0.024,0.318 ± 0.0052,0.192 ± 0.0026,0.191 ± 0.035,0.271 ± 0.0047,0.267 ± 0.022
GLFLLWWLGWLV,0.63 ± 0.011,0.645 ± 0.043,0.468 ± 0.022,0.651 ± 0.023,0.333 ± 0.02,0.376 ± 0.02,0.5187 ± 0.0047,0.422 ± 0.036
VDSTCLLITLLA,0.534 ± 0.1,0.4893 ± 0.0016,0.348 ± 0.036,0.506 ± 0.0053,0.245 ± 0.0068,0.296 ± 0.023,0.456 ± 0.02,0.41 ± 0.0047
SIRIIVVVRGAS,0.528 ± 0.048,0.628 ± 0.056,0.433 ± 0.023,0.61 ± 0.071,0.393 ± 0.024,0.41 ± 0.017,0.543 ± 0.02,0.382 ± 0.12
SIFWWWLVFILG,0.469 ± 0.0093,0.4759 ± 0.0034,0.362 ± 0.02,0.502 ± 0.008,0.366 ± 0.018,0.368 ± 0.026,0.462 ± 0.011,0.418 ± 0.085
GGVWLSVVSWVG,0.156 ± 0.0086,0.238 ± 0.03,0.0995 ± 0.024,0.256 ± 0.012,0.0676 ± 0.00079,0.0976 ± 0.011,0.244 ± 0.0053,0.167 ± 0.021
VGGSRGARLGVG,0.352 ± 0.012,0.448 ± 0.014,0.389 ± 0.011,0.426 ± 0.0085,0.3945 ± 0.00071,0.384 ± 0.01,0.42 ± 0.021,0.386 ± 0.014
VSLSWFSCCFVG,0.497 ± 0.066,0.556 ± 0.03,0.439 ± 0.026,0.489 ± 0.023,0.376 ± 0.026,0.377 ± 0.019,0.458 ± 0.01,0.386 ± 0.0073
LGFSHTRAIFFV,0.651 ± 0.039,0.7312 ± 0.0055,0.605 ± 0.012,0.724 ± 0.0022,0.186 ± 0.01,0.213 ± 0.0094,0.396 ± 0.0071,0.307 ± 0.011
